Positions count from the first letter of the chain named.
B1: chimeric antibody 1E9.2-hz00 (antibody, human IgG1, kappa, V domains shown)
VH: EVMLVESGGGLVKPGGSLKLSCAASGFSFSNSAMSWVRQTPEKRLEGVATISSGDSYTYYPDSVKGRFTISRDNAKNSLYLQMSSLRSEDTAVYYCARQGYGNALDYWGQGTSVTVSS
VL: DIVMTQSPSSLTVTAGEKVTMSCKSSQSLLNSGNQKNYLTWYQQKPGQPPKLLIYWSSTRESGVPDRFTGSGSGTDFTLTISSVQAEDLAVYYCQNDYYYPLTFGAGTKLELKR
notes: Mouse variable regions on human IgG1 / kappa constant regions; expressed in Expi293F; also called 1E9.2 chimeric antibody
B2: chimeric antibody 6B9.22-hz00 (antibody, human IgG1, kappa, V domains shown)
VH: QVQLQQSGAELVKPGASVKMSCKAFGYTFTSYPIEWMKQNHGKSLEWIGNFHPYNDDTKYNEKFKGKAKLTVEKSSSTVYLELSRLTSDDSAVYYCARTYYGNSFAYWGQGTLVTVSS
VL: B1 VL with S57A, T59S, E61D, D66H, V91F, Y99F, L102F
notes: Mouse variable regions on human IgG1 / kappa constant regions; expressed in Expi293F
B3: chimeric antibody 9C8.1-hz00 (antibody, human IgG1, kappa, V domains shown)
VH: QVQLQQSGAELVRPGSSVKISCKASGYAFSNYWMNWVKQRPGQGLEWIGQIYPGDGDTNYNGKFKGKATLTTDKSSSTAYMQLSSLTSEDSAVYFCARLYYGNSFAYWGQGTLVTVSS
VL: B1 VL with M21V, S57A, E87A, V91I, Y99F, L102F, A106G, L112I
notes: as for B2
B4: chimeric antibody 19H11.6-hz00 (antibody, human IgG1, kappa, V domains shown)
VH: B1 VH with Y57F, S63T, S85R
VL: B1 VL with S22T
notes: as for B2
B5: chimeric antibody 16A9.11-hz00 (antibody, human IgG1, kappa, V domains shown)
VH: B1 VH with N74T, A97T, L105M
VL: B1 VL
notes: as for B2
B6: humanized antibody 1E9.2-hz15 (antibody, human IgG1, kappa, V domains shown)
VH: EVQLVESGGGLVKPGGSLRLSCAASGFSFSNSAMSWVRQAPGKGLEWVSTISSGDSYTYYADSVKGRFTISRDNAKNSLYLQMNSLRAEDTAVYYCARQGYGNALDYWGQGTLVTVSS
VL: DIVMTQTPLSLPVTPGEPASISCKSSQSLLNSGNQKNYLTWYLQKPGQSPQLLIYWSSTRESGVPDRFSGSGSGTDFTLKISRVEAEDFGVYYCQNDYYYPLTFGGGTKVEIKR
notes: Human IgG1 / kappa constant regions
B7: humanized antibody 1E9.2-hz17 (antibody, human IgG1, kappa, V domains shown)
VH: B6 VH
VL: B6 VL with N31Q, Q35G
notes: as for B6
B8: humanized antibody 1E9.2-hz21 (antibody, human IgG1, kappa, V domains shown)
VH: B6 VH with W47G
VL: DIVMTQSPDSLAVSLGERATINCKSSQSLLNSGNQKNYLTWYQQKPGQPPKLLIYWSSTRESGVPDRFSGSGSGTDFTLTISSLQAEDFAVYYCQNDYYYPLTFGGGTKVEIKR
notes: as for B6
B9: humanized antibody 1E9.2-hz41 (antibody, human IgG1, kappa, V domains shown)
VH: B6 VH with W47G, S49A, A61P
VL: B8 VL
notes: as for B6
B10: humanized antibody 1E9.2-hz31 (antibody, human IgG1, kappa, V domains shown)
VH: B6 VH with W47G, S49A
VL: B8 VL
notes: as for B6
B11: mouse antibody 19G10.14 (antibody, V domains shown)
VH: QVQLKESGPGLVAPSQSLSITCTVSGFSFTSYGVHWVRQPPGKGLEWLGVIWAGGSTDYNAALMSRLSIRKDNSKSQVFLKMNSLQIADTAMYYCARDGHGKVGFDVWGAGTTVTVSS
VL: DIVMTQSPSSLSVSAGEKVTMNCKSSQSLLNSGNQKNYLAWYQQKPGQPPKLLIYGASTRESGVPDRFTGGGSGTDFTLTISSVQAEDLAIYYCQNDHFYPFTFGSGTKLEIK
notes: Purified from hybridoma
B12: mouse antibody 9C8.1 (antibody, V domains shown)
VH: B3 VH
VL: B11 VL with S12T, S14T, M21V, N22S, A40T, G56W, G71S, E87A, H98Y, S106G
notes: Purified from hybridoma
B13: mouse antibody 6B9.22 (antibody, V domains shown)
VH: B2 VH
VL: DIVMTQSPSSLTVTAGEKVTMSCKSSQSLLNSGNQKNYLTWYQQKPGQPPKLLIYWASSRDSGVPHRFTGSGSGTDFTLTISSVQAEDLAFYYCQNDYFYPFTFGAGTKLELK
notes: Purified from hybridoma
B14: mouse antibody 1E9.2 (antibody, V domains shown)
VH: B1 VH
VL: B13 VL with A57S, S59T, D61E, H66D, F91V, F99Y, F102L
notes: Purified from hybridoma
B15: mouse antibody 16A9.11 (antibody, V domains shown)
VH: B1 VH with N74T, A97T, L105M
VL: B13 VL with A57S, S59T, D61E, H66D, F91V, F99Y, F102L
notes: Purified from hybridoma
B16: mouse antibody 19H11.6 (antibody, V domains shown)
VH: B1 VH with Y57F, S63T, S85R
VL: B13 VL with S22T, A57S, S59T, D61E, H66D, F91V, F99Y, F102L
notes: Purified from hybridoma
B17: humanized antibody 1E9.2-hz12 (antibody, human IgG1, kappa, V domains shown)
VH: B6 VH
VL: B8 VL with N31Q
notes: as for B6
B18: humanized antibody 1E9.2-hz14 (antibody, human IgG1, kappa, V domains shown)
VH: B6 VH
VL: B8 VL with N31Q, Q35N
notes: as for B6
B19: humanized antibody 1E9.2-hz13 (antibody, human IgG1, kappa, V domains shown)
VH: B6 VH
VL: B8 VL with N31Q, F89V
notes: as for B6

Target: T1, human Claudin18.2 (human, UniProt P56856-2 1-261)
T1 construct: whole, on cells; Four-transmembrane protein, always presented on cells (transfected lines or NUGC-4 with endogenous expression); also called CLDN18.2
Assay: flow cytometry on Ba/F3-Claudin18.2 cells, chimeric antibody
Protocol: The affinity of the anti-Claudin18.2 chimeric antibodies to Ba/F3-Claudin18.2 cells were determined. […] The cells were then analyzed by FACS.

Binder | EC50 [nM] | Max MFI [MFI]
B1 | 11 | 1.18e+07
B2 | 18.2 | 1.67e+07
B3 | 23.9 | 1.44e+07
B4 | 11.6 | 1.3e+07
B5 | 10.5 | 1.24e+07

Target: T1, human Claudin18.2
Assay: flow cytometry (IntelliCyt) on Ba/F3-Claudin18.2 cells
Excerpt: In order to evaluate the anti-Claudin18.2 humanized antibodies, codon optimized cDNAs of the heavy chains and the light chains of the candidate humanized antibodies from Example 6 were synthesized and ligated into pcDNA3.4 (by Nanjing Genscript Biotech Corporation). Expi293F cells (purchased from Thermo Incorporation) were co-transfected with pcDNA3.4 coding the heavy chain and light chain of each antibody. The antibodies were purified from the supernatant using protein A (MabSelect SuRe, GE). The affinity of the humanized antibodies to Claudin18.2 was determined using Ba/F3-Claudin18.2 cells which over-expressed human Claudin18.2. Ba/F3-Claudin18.2 cells (60000 in 10 ul buffer) were incubated with purified humanized antibodies on ice for 30 min, followed by washing with buffer (PBS+2% FBS) twice and addition of Alexa647-labeled goat-anti-human IgG Fc antibody (1:500 dilution). The cells were incubated on ice for another 30 min and analyzed by IntelliCyt.

Binder | Max MFI [MFI]
B1 | 1.12e+07
B6 | 8.99e+06
B7 | 5.9e+06
B8 | 1.46e+07
B9 | 1.13e+07
B10 | 1.06e+07

Target: T2, human Claudin18.1 (human, UniProt P56856 1-261)
T2 construct: whole, on cells; Presented on transfected cells; also called CLDN18.1
Assay: FACS titration on Ba/F3-Claudin 18.1 cells
Protocol: (§1) The affinity of the candidates to Claudin18.2 was measured using FACS. […] Ba/F3-Claudin18.1 and Ba/F3-Claudin18.2 cells were incubated with the purified mouse antibodies at various concentrations on ice for 30 min and mouse IgG was used as negative control (Thermo Fisher, Cat: 31903), followed by washing with FACS buffer (PBS+2% FBS) twice.

Binder | binding result
B11 | no binding (tested: about 50 nM)
B12 | no binding (tested: about 50 nM)
B13 | no binding (tested: about 50 nM)
B14 | no binding (tested: about 50 nM)
B15 | no binding (tested: about 50 nM)
B16 | no binding (tested: about 50 nM)

Target: T1, human Claudin18.2
Assay: cell-based or functional assay

Binder | ADCC EC50, Ba/F3-Claudin18.2 target cells, NK-92MI_mCD16 effectors [µg/mL] | ADCC Max killing rate %, Ba/F3-Claudin18.2 target cells [%]
B1 | 0.049 | 59.8
B17 | 0.091 | 64.4
B6 | 0.08 | 66.2
B7 | 0.113 | 59.6
B18 | 0.097 | 60.5
B9 | 0.048 | 55.4
B19 | 0.068 | 63.8

Target: T1, human Claudin18.2
Assay: flow cytometry on Ba/F3-Claudin18.2 cells, purified mouse antibody
Protocol: as §1

Binder | EC50 [nM] | Max MFI [MFI]
B11 | 16.3 | 3.5e+06
B12 | 9.4 | 4.97e+06
B13 | 3.64 | 3.62e+06
B14 | 8.51 | 5.08e+06
B15 | 10.2 | 5.82e+06
B16 | 10.9 | 6.01e+06
